Data from the nanobody polyreactivity screen of Harvey et al. (2022).

Assay: yeast display, Sf9 membrane polyspecificity reagent, FACS + sequencing; frameworks hold sequencing errors
In short: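 Galactose induction of a Saccharomyces cerevisiae BJ5465 synthetic nanobody display library ran 36–48 hours. The cells were then stained for 1 hour at 4 °C with 10% biotinylated, detergent-solubilized Sf9 membrane reagent, pulled down on streptavidin microbeads and FACS-sorted into low and high (top ~1%) gates on expression and reagent-binding fluorescence. Labels for polyreactivity follow the gate of origin.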

Sequence	polyreactivity (PSR sort gate)
QVQLVESGGGLVQAGGSLRLSCAASGNTFSPYGMGWYRQAPGKERELVAGITISDDSTYYADSVKGRFTISRDNAKNTVYLQMNSLKPEDTAVYYCNARYLSWYFKYLYDYWGQGTQVTVSS	low polyreactivity
QVQLVESGGGLVQAGGSLRLSCAASGNTFTFYAMGWYRQAPGKERELVASITGRGGSTYYADSVKGRFTISRDNAKNTVYLQMNSLKPEDTAVYYCNADYNSYRYRPPTTRDYWGQGTQVTVSS	low polyreactivity
QVQLVESGGGLVQAGGSLRLSCAASGNTFVRYDMGWYRQAPGKEREFVAAITASGGSTYADSVKGRFTISRDNAKNTVYLQMNSLKPEDTAVYYCNAGNSSTGVDRYDYWGQGTQVTVSS	low polyreactivity
QVQLVESGGGLVQAGGSLRLSCAASGNTFVSNAMGWYRPAPGKERELVAAISSTGNTNYADSVKGRFTISRDNAKNTDYLQMNSLKPEDTAVYYCAKGDKRAYVAYKEGSWGQGTQVTVSS	low polyreactivity
QVQLVESGGGLVQAGGSLRLSCAASGNTFVSNARGWYRQAPGKERELVAAIDSGGSTNYADSVKGRFTISRDNAKNTVYLQMNSLKPEDTAVYYCNRTSVYYYYWGQGTQVTVSS	low polyreactivity
QVQLVESGGGLVQAGGSLRLSCAASGNTFVTNDMGWYRQAPRKERELVADISWGGASTYYADSVKGRFTISRDNAKNTVYLQMNSLIPEDTAVYYCYATDDITYTYSYDYWGQGTQVTVSS	low polyreactivity
QVQLVESGGGLVQAGGSLRLSCAASGNTFWFYGMGWYRQAPGKERELVAAITSGGSTDYADSVKWRFTISRDNAKNTVYLQMNSLKPEDTAVYYCAAEPVAYYGSSYGYWGQGTQVTVSS	low polyreactivity
QVQLVESGGGLVQAGGSLRLSCAASGNTFWSYAMGWYRQAPGKERELVAAISFSGGSTNYADSVKGRFTISRDNAKNTVYLQMNSLKPEDTAVYYCAAYFYAPLTYYSWYDYWGQGTQVTVSS	high polyreactivity
QVQLVESGGGLVQAGGSLRLSCAASGNTFWSYAMGWYRQAPGNERELVAAITQRGGSTYYADSVKGRFTISRDNAKNTVYLQMNSLKPEDTAVYYCAADTSYKGDYWGQGTQVTVSS	high polyreactivity
QVQLVESGGGLVQAGGSLRLSCAASGNTFWYNAMGWYRQSPGKERELVAAISYSGGGTYYADSVKGRFTISRDNAKNTVYLQMNSLKPEDTAVYYCAADTLQRAFVLNDYWGQGTQVTVSS	low polyreactivity
QVQLVESGGGLVQAGGSLRLSCAASGNTFYAYAMGWYRQAPGKERELVAAIARGGNTYYADSVKGRFTISRDNAKNTVYLQMNSLKPEDTAVYYCNAYYPIRSSPYGYYYWGQGTQVTVSS	high polyreactivity
QVQLVESGGGLVQAGGSLRLSCAASGNTFYAYTMGLYIQAPGKERELVAAISSDGSTNYADSVKGRFTISRDNAKNTVYLQMNSLKPEDTAVYYCAVTLEVSTVRDYDYWGQGTQVTVSS	low polyreactivity
QVQLVESGGGLVQAGGSLRLSCAASGNTFYGYAMGWYRQAPGKERELVASITLSGDSTYYSDSVKGRFTISRDNAKNTVYLQMNSLKPEDTAGYYCAFDGYWYGGIFYYGGQGTQVTVSS	low polyreactivity
QVQLVESGGGLVQAGGSLRLSCAASGNTFYINAMGWYRQAPGKERELVAAINYSGDSTYADSVKGRFTITRDNAKNTFYLQMNSLKPEDTAVYYCAADTGWYDDWTHDYWGHGTQVTVSS	low polyreactivity
QVQLVESGGGLVQAGGSLRLSCAASGNTFYIYAMGWYRQAPGKERELVAAISRGGGSTYYAESVKGRFTISRDNAMNTVYLQLNSLKPEDTAVYYCAADYYYSRYDYWGQGTQVTVSS	high polyreactivity
QVQLVESGGGLVQAGGSLRLSCAASGNTFYKYAMRWYRQAPGKERELVADISWSGGSTYYADSVKGRFTISRDNAKNTVYLQMNSLKPEDTAVYYCNADTPVWDGHAYPVDYWGQGTQVTVSS	low polyreactivity

Sequence	polyreactivity (PSR sort gate)
QVQLVESGGGLVQAGGSLRLSCAASGNTFYLYAMGWYRKAPGKERELVASITGGTRTNYADSVKGRFTISRDNAKNTVYLQMNSLKPEDTAVYYCAVRYYWRRMNYWGQGTQVTVSS	high polyreactivity
QVQLVESGGGLVQAGGSLRLSCAASGNTFYNVYAMGWYRQATGKERELVAAITARGSTYADSVKGRFTISRDNAKNTVYLQMNSLKPEDNAVYYGATRSSWLYRGLYYNGFNYWGQGTQVTVSS	high polyreactivity
QVQLVESGGGLVQAGGSLRLSCAASGNTFYPKDMGWYRQAPGKERELVAAITTNDGDTYYADSVKGRFTISRDNAKNTVYLQMNRLKPEDTAVYYCAADSGSTSEYEYWGQGTQVTVSS	low polyreactivity
QVQLVESGGGLVQAGGSLRLSCAASGNTFYPYAMGWYRQAPGKERELVAAITSSGGSTYYADSVNGRFTISRDNAKNTVYLQMNSLKPEDTAVYYCAAYIYFLGMDYWGQGTQVTVSS	low polyreactivity
QVQLVESGGGLVQAGGSLRLSCAASGNTFYRNAMGWYRQAPGKERELVAAITFSTGRTYYADSVKGRFTISRDNAKNTVYLQLNSLKPEDTAVYYCAAFYSGGDYWGQCTQVTVSS	high polyreactivity
QVQLVESGGGLVQAGGSLRLSCAASGNTFYYAMGWYTQAPGKERELVASIRTGGSTNYADSVKGRFTISRDNAKNTVYLQMNSLKPEDTAVYYCNRDGTYSHTGWDYWRPYEYWGQGTQVTVSS	low polyreactivity
QVQLVESGGGLVQAGGSLRLSCAASGNTIFAYVMGWYRQAAGKEREFVAAISRRDGRTYYADSVKGRFTISRDNAKNTVYLQMNSLKPEDTAVYYCNAQRHFWHLYAPSSFDYWGQGTQVTVSS	low polyreactivity
QVQLVESGGGLVQAGGSLRLSCAASGNTINFYAMGWYRQAPGKEREMVAAISSGGSTNYADSVKGRFTISRDNAKNTVYLQMNSLKPEDSAVYYCAKDVWYLVYYHWKSNRVWQYDYWGQGTQVTVSS	low polyreactivity
QVQLVESGGGLVQAGGSLRLSCAASGNTIVTNTMGWYRQAPGKERELVAAIDSGGDTYYADSVKGRFTISRDNAKNTVYLQMNSLKPEDTAVYYCAAVGDPNYFSNRRYEYWGQGTQVTVSS	low polyreactivity
QVQLVESGGGLVQAGGSLRLSCAASGNTLPQNAMGWYRQAPGKERELVAAISRSGGSTYYADSVKGRFTISRDNAKNTVYLQMNSLKPEDTAVYYCAAKLTVSGYRYGYWGQGTQVTVSS	high polyreactivity
QVQLVESGGGLVQAGGSLRLSCAASGNTLRTYGMGWYRQAPGKEREFVAAITYSGGSTYYADSVKGRFTISRDNAKNTVYLQMNSLKPEDTAVYYCAARYRSHYRRITPYDSWGQGTQVTVSS	high polyreactivity
QVQLVESGGGLVQAGGSLRLSCAASGNTLSYYTMGWYRQAPGKERELVAAISRGGGSTYYADSVKGRFTISRDNSMNTVYLHMNSLKPEDTAVYYCAAEAYRYAWYDYWGQGTQVTVSS	high polyreactivity
QVQLVESGGGLVQAGGSLRLSCAASGNTLYQYAMGWYRQAPGKERELVAAISGIGDSTYYADSVKGRFTISRDNAKNTVYLQMNSLKPEDTAVYYCAADGEYRYDLEYESWGQGTQVTVSS	low polyreactivity
QVQLVESGGGLVQAGGSLRLSCAASGNTLYSYAMGWYRQAPGKERELVAAITKSGGRTYYADSVKGRFTISRDNAKNTVYLQMNSLKPEDTADYYCNAVFLPTYHFDYWGQGTQVTVSS	high polyreactivity
QVQLVESGGGLVQAGGSLRLSCAASGNTSAVYAMGWYRQAPGKERELVASITWSDGITYYADSVKGRFTISRDNAKNTVYLQMNSLKPEDTAVYYCAKSTLYSVEYDYWGEGTQVTVSS	low polyreactivity
QVQLVESGGGLVQAGGSLRLSCAASGNTVKGYAMGWYRQAPGKERELVAAISWSGSSTYYADSVKGRFTISRDNAKNTVYLQMNSLKPEDTAVYYCNRKYLGRYASVYGYGYWGQGTQVTVSS	high polyreactivity
